The values that follow come from US20250092426, “CAS ENDONUCLEASES AND RELATED METHODS” (Flagship Pioneering Innovations VII, LLC, published 2025).

The data set has as its target T1, CasEnd-34 (synthetic construct).
T1 chain: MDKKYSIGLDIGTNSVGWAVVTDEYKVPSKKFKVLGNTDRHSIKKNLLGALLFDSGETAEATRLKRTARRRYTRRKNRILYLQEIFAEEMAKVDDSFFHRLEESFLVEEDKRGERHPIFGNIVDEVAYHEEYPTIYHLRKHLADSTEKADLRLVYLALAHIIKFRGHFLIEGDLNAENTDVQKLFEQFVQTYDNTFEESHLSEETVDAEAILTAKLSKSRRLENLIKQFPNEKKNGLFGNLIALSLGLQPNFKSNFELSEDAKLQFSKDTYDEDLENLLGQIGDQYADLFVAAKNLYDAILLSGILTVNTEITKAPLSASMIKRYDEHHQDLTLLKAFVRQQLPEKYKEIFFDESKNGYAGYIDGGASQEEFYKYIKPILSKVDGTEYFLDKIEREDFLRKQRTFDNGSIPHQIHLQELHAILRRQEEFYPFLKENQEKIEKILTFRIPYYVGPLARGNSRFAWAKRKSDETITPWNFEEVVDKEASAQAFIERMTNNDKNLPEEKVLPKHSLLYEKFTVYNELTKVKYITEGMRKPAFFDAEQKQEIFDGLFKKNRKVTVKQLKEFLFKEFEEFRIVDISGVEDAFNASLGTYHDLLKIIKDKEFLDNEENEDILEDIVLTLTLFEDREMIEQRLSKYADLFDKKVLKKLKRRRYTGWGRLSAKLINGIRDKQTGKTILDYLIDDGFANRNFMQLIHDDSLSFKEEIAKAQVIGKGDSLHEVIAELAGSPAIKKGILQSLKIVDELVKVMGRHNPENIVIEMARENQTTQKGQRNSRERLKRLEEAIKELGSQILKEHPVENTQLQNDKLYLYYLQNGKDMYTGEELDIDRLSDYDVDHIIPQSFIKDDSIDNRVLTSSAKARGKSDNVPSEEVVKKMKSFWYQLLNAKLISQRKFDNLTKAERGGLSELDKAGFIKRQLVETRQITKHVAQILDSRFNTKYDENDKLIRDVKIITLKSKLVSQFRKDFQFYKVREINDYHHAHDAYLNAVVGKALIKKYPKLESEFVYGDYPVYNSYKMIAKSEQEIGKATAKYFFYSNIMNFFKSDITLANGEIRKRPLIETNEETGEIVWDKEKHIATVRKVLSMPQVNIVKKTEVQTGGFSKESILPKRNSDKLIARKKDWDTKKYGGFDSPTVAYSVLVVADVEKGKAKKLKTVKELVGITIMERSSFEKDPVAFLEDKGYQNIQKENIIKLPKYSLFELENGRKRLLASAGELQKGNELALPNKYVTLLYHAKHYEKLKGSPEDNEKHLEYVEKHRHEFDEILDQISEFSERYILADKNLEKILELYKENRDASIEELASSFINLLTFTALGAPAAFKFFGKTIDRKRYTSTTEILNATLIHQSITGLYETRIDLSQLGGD
In words: cell_activity; +++; HEK293T; PAM not stated. The gist of the method:
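Editing activity was scored as the fraction of GFP+ cells on day 4 by flow cytometry. BFP-expressing HEK293T cells (250,000) received by nucleofection 200 ng plasmid for the RT-Cas fusion protein and 200 ng template RNA plasmid designed to convert BFP to GFP.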

A value given as a limit tells only on which side of the number the result lay.

B1: BFP-to-GFP template RNA ; BFP reporter protospacer (ssRNA ; dsDNA)
RNA: GCCGAAGCACUGCACGCCGUGUUUUAGAGCUAGAAAUAGCAAGUUAAAAUAAGGCUAGUCCGUUAUCAACUUGAAAAAGUGGCACCGAGUCGGUGCACCCUGACGUACGGCGUGCAGUGCUU
DNA 1: GCCGAAGCACTGCACGCCGT
DNA 2: ACGGCGTGCAGTGCTTCGGC
Take B1: the activity was ≥ 100 % of reference.
